Assay: label from the status in PepcDB records
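Further: failed if final PepcDB status was selected cloned or expressed and not failed if soluble or beyond.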

With “MLGAPAHRAASAAPVIRRTKGPDMPTRLTALLSPSRPSRPSRDDAAGPVAGTARPARGAGWATALSLALVCFVTYAALSVRLHQRMLTTGYDLGIFEQAVRSYAHGHLPVAELKGPGFPLLGDHFSPVLALLAPLYRVWPAPVTLLVAQAALFAVAVIPLARWAEEVRGRRAALVVGLGYGASWGVAQAVGFDFHEVCFAVPLLALSLTAVGRGRARAAALWALPLLLVKEDLGLTVAVVGLLIARTGERDDRRRGGALVLAGVLGSFLEMLVVIPAFNPGGTFAYSSSVPGAGSATPGAGELLLHYTVGLVTPDTKAQTVLALLSVTGFLAVRSPLLWAALPTLLWRFASDNQAYWGTGYHYSAVLMPVLFAAFVDALTRPGPVRYALAASAAVTVLLLPQFPLWQLTQPATWHTDSRLASARRLMDRIPDGATVAASNRLVPQLTNRARVSVFGLGGSRPDAEWIIDDSAQPQGWPIAPDDDRRLLSEVRNNGRYRTVADQDGYVLLQRRP” as the sequence, how does the protein production read?
The protein production was “failed”.

For “MLGEFKHYKTRLAHGGIPQEVQNLLLEYGVEIFAEMLVEGLSRIKRCTDEGRVLMSLDLQVLINGLQHFVPTKVKPKLQIVETFIKAYYLPETEYVHWARAHPEYTKAQVVGLVNLVATMKGWKRKTRLEVIEKIESASM”, which protein production is on record?
Its protein production is “failed”.

With “MLGKDYMLAIILVNCDDDLWGDHSLEVEAGLPPGWRKIHDAAGTYYWHVPSGSTQWQRPTWELGDAEDPGTGTEGIWGLRPPKGRSFSSLESSLDRSNSLSWYGGESYIQSMEPGAKCFAVRSLGWVEVPEEDLAPGKSSIAVNNCIQQLAQTRSRSQPPDGAWGEGQNMLMILKKDAMSLVNPLDHSLIHCQPLVHIRVWGVGSSKGRDRDFAFVASDKDSCMLKCHVFCCDVPAKAIASALHGLCAQILSERVEVSGDASCCSPDPISPEDLPRQVELLDAVSQAAQKYEALYMGTLPVTKAMGMDVLNEAIGTLTARGDRNAWVPTMLSVSDSLMTAHPIQAEASTEEEPLWQCPVRLVTFIGVGRDPHTFGLIADLGRQSFQCAAFWCQPHAGGLSEAVQAACMVQYQKCLVASAARGKAWGAQARARLRLKRTSSMDSPGGPLPLPLLKGGVGGAGATPRKRGVFSFLDAFRLKPSLLHMP” as the sequence, how does the protein production read?
Its protein production is “not failed”.

For “MLHDTPLITTIVAGLCLAFLLGMIASRLRISPLVGYLLAGVIVGPNTGGFRIDSGIINQLAEIGVILLMFGVGLHFSLKDLLSVKAIAIPAAIAQMAFSTFLGSCLGLIMGWGLSSSVVFGLALSTASTVILLRALQERHLIETEKGRIAVGWLIIEDLAMVLILVLIPSLANILGNTKKEAIDPLIQWLDLSIWGIFGLTILKVILFIILMLVIGRRVIPWLLKVSAHSGSRELFRLSVFATALGVAFGAAHLFGVSLSLGAFFAGMVMSESELSHRAAEESLPLRDAFSVLFFVSVGMLFDPGKILSHFFPLLATLFIIIIGKSAGAFFILKAFRYSNATACTISASLAQIGEFSFILAGLSLSLGLLNNDAHDFILGGAILSILVNPLIFIAFDKIKKHLENLPKNSQDTQKIIDIDPKDPDQEFLPMTSKTNHIVIIGYSRIGKCVALSLINRGDPVVIVEESKRLTDKAIADGFEVICGNIIKQDVMNAANMSNAYKVVITMCNTIEVGECIVNIRDMNKDIQIITHTLSDVDTAYLIDLGADIVVTDEEEIANGVIEHITGQRFIKNIAQS”, which protein production is on record?
The protein production was “failed”.

Which protein production does the source give for “MLHLQTFGDLRLIETNGDAIRYPIKGLLMMAHLYAGASHELSRYELAQFLWNDVESELARLNLRKLLSRIRETDGGRAEIPFDFTATTVRLNTQAVSSDLDIFRAGGSPLERLNAIAELTQRGFIGNIKPATKLIEAWIRAQRDAQALQLRQALLDALPDAQKPGAARSISGAALQILERDPNDEQVRALLHQLSGGSSLSERLPNGDGHARVQVKRSEAGGETTADIERVSQAPLILPRLVLLPPTSKHADAGLALANALIEDVTIELCALRNISIVAPHTAGQIRRDSEKAAVVARHSIAYLLDTRLSEEGLFAQLVYFPTDEIIWANRFTMTPDILPRQRRLIAQQLTMSVARELAENEEERLRFEANPEAYHAYLVGSSLMSKLTLPHIRRARKAFKQSLSHKADFSPSFTGLARTFTSEWLVTAQGNNELLHLAEQNALRAIERDPASAAGHRELGVTKLYLGDVDASVAALDLAEQLSPHFADVIYSHADTLVHASRPGDALAKIRRAISLNPIAPDAYLWCAAGASFFLEQYEEAIAYVEAMKDKAPAHRIAAASCAMIGDRKRALFHRQRAESINPVFDVEKWLAIVPFKEDWQKELYREGLLKAGF” here?
Its protein production is “failed”.

With “MLIDKKTQAGVKSIIGWQHCAHFYRQNKLLGLFTKIKRPTKGQRMEEELKQQFDEMGVEPADAVLGRCAELAITYNIHDATEFVEQWMAFSLSHLQGEDPAIENLGDFERKVLQLRKDKAGYKATGQKAKSYGSPSVQDTSSLATYGVMEDDPMLDDYVSESAVDSSALHTPKAKKQSDRTANLKGAALFSPASYTPQSAKRKAGLETPSNSVAGKPGDIVDTFGHPKLLAGSSWQSQMEHTVPVTQKLLHNDAPLTIANLGYMNDLLTDRCHNLRVRFNQTGPALVDKKLGQAGAAECIWYPQDRQVLQSAGGLHAVGMIHSEDDGPLDAHSAFMAVLDDDVEDEMDPTLTLNFSRVKSASIFPGQVVLAKGFIPRGKTFMVEEIHTERKLTPATPLQIDRELQFVVASGPFTDSTDLFYEPLHDLLKYLKDHRPDVLVLTGPFLDADHKMVGELAETFDTFFEKMIGGIMESIGSHTAVLVVTSQKDAMALSVYPTPPPALRRTYPNLYMLPDPSLVDLDGFTLGVTSTDVVDHLLSHEFAVNAGERMHRAINHLFHQGSFYPLYPPADEDMAYDSQLALKYAQLKQLPNVLILPSDQRHFIRLVNDCLVINPGRVADKKGGTFARFLVAPSVPGKAANMFNSVACQVQRI” as the sequence, how does the protein production read?
Its protein production is “failed”.

Which protein production does the source give for “MLIDPIELYRYPEKWIKDRDAEKKVRSGLYILTEDGYLRRGITTGTTASAAAVAAIASLKEKVEKVKVSTPAGVDVEVEVEAEKGFARVRKFSGDHEFDVTNGIIFEAEVCETSGIFFGRGVGVKAGEKAVSRSAKLQILENFIKASREFNFSGGVRISVPDGEEVAKKTGNEKVGIKGGISILGTTGFVEPWCKKLVETKLKIAMQYHRIAITTGRKAWLYARKKFPEYQPFVFGVHIDEALKHPGEKIIVGFPGLLKIWAGSRDRIEERAREEGVRVVVIEDDMDSWVWDVQGTDH” here?
Its protein production is “not failed”.

With “MLIFKIFRRSEWDDFRRAGATAGAPVDLADGYIHFSTAAQVAETAAKHFTAESDLVLVAIDPDRAGPDLKWEPSRGEQLFPHLYRRLTLDDVVWDKSLPLGATGHIFPEGLWLEHHHHHH” as the sequence, how does the protein production read?
Its protein production is “not failed”.

For “MLIKRLAFAIMTLVIMTSAGCGFKLQRSYQIPEQLNQLSLSSSDEYSELTRLVRERLRLNNVKIVDAANDVPVLRLITDSLERSTLSLYPTGNVAEYELIYFVEFAVALPGKEAQPFKIEIRRDYLDDPRTALAKSREMELLVKEMRIQAADRILQSMASTEVNLEHHHHHH”, which protein production is on record?
Its protein production is “not failed”.

For “MLILSTEKEPNFEYEEITRSFLSNMLAFTRGHFTGDISHFSPIVLAEMEKDPNWLEEAAGGMQGVIVQSLLEDENFSSVEQLKGELARLIRLYFALAKDNLTENQESLYVDLFDKFTFLLLCSDEFIMYLDSQPKF”, which protein production is on record?
The protein production was “not failed”.

For “MLIRAIPFVFVILWASGFVGARFGLQYAEPATLLSIRMAFNVLLFLVLVAVLRRRLPTGTDFWHSCVVGALIHGFYLGGTYFAIALGMPAGLSSLLVGIQPILTAALLVAFVREEFKPSQWLGLALGFVGIAMVLMGKMEWQSEQHKVLAIGLCLLALVGITLGTLYQKKHCQQVDMVGGATVQYLAALIMFLPVAMQFETMQVQWELEFILTVLWLVVVLSCVAILLLLYMVRNGASSSVASVFYLVPPTTAIQAWLAFGESFDWMGISGFVLAATAVYLVVKKPDLTIKKAIKTEYT”, which protein production is on record?
The protein production was “failed”.

With “MLIREAKLAGTPEQFAQLDAAIRTAQCVHNRCLRYWRDNAGVSKNDLQKFCAVLAKDAEQPWMGLLNSQARQAAAERTWQSIQSFYRRCKEGAKHKGYPKFKKHSRSVEYKTSGWKLSDDGMSITFTDGFKAGQLELWLDGSARQLILSSKINRVRVVRRADGYYAQFCLDVERQEAGVYSGNVIGLDLGLKYFTKDSNGAEVACPKFFRKGEKRLRRAQRRLSKRFKKGAKPQSKNYHKQRQRIGKVHLKIQRQRKSWAIEQARRVMVSNDIVVYEDLRVPNLVRSRHLAKSIHDAGWTQFTHWLDYYGKLWRKVVVAVNPAYTSQDCSGCGYRVQKSLSTRTHDCPHCGLTICRDQNAALNILKRGLEVVGAEWNNGTAGHAETGSQEQTTGEISTSAEVGQPTSVSAVAEPVRTSREAV” as the sequence, how does the protein production read?
The protein production was “failed”.

With “MLIRKITRKNPSPDVLEEAISVMEGGGIVIYPTDTIYGLGVNALDEDAVRRLFRVKGRSPHKPVSICVSCVDEIPRFSRPSGDAMELMERILPGPYTVVLERNELIPDVITGGSSRVGIRVPDDEICRRIAARFPVTATSANISGKPPSPRLEEIVRDLDAVDLVLDAGDCLDMEPSTVIDLTVNPPRVLRRGKGPLDPVLLRGAGDV” as the sequence, how does the protein production read?
Its protein production is “not failed”.

For “MLIRPFLQYILGAVLLAYVLYPLQIRLETYVSPMLAALSLVTLAVTGFVAPVVVVLASIMESADRILREFGTDPVQLDILESRIKGLTGVEVDIAGELVSSGRDIGTIIVERSTQAFSTITFHLIGIALALFLIYYLLKDGDDLVDWLHRTVPLPVDVQRDFYAEIDDVMLGVLFGHVFVAIVQGIVAGVGLAATGVPNAMFWTAVMVVLAMVPLIGTIPVWGGAVIYLYATDEPLLAVGLFLYSVIIVGLTDDYLRPFAVDRYAKLNPAVILLGILGGAYAFGVMGLLFGPVVLGALKAALRVGLDTWSQIDDGNIG”, which protein production is on record?
The protein production was “failed”.

For “MLISAIIGGVEYINLYRFPEIPLVGFTLIGVVLSIFLGFKNTACYDRWWEARKLWGVLIATSRHFDRDCRILTQARRERVIQHVIVFANVLRDRLRRQTANPTELIQTSGMSQQALTQLYQQNNAPQYTLSLIQWELLQALKEGEISDIIYAQMNKNVADLSVVQTGCDRIANTPIPFAYSVLLNRTVYFFCFMLPFSLGSLLGLATPLLVGILAYTFLGLDALSTEIEEPFGTQSNDLPLDAMVRSIEIELLGTLGKPTPPPIQAQDNNLL”, which protein production is on record?
The protein production was “failed”.

For “MLISIESKEHYRILCIDGGSTDQTIPMIERLQRELKHISLIQLQNASIATCINKGLMDIKMTDPHDSDAFMVINPTSIVLPGKLDRLTAAFKNNDNIDMVIGQRAYNYHGEWKLKSADEFIKDNRIVTLTEQPDLLSMMSFDGKLFSAKFAELQCDETLANTYNHAILVKAMQKATDIHLVSQMIVGDNDIDTHATSNDEDFNRYIIEIMKIRQRVMEMLLLPEQRLLYSDMVDRILFNNSLKYYMNEHPAVTHTTIQLVKDYIMSMQHSDYVSQNMFDIINTVEFIGENWDREIYELWRQTLIQVGINRPTYKKFLIQLKGRKFAHRTKSMLKRLEHHHHHH”, which protein production is on record?
Its protein production is “failed”.

With “MLISKKTLGVLIPDIFSFSNDQIAQKLEQMGIEVESIKQFNSPDYLQLAKVVSIQPHPHDNKLFICELQIDKNKFINVVSNANNINNPDNINKFVIVAKKGTELLNGLIVKTQNIKGIISEGILCSYIDINPFSRQIIEKTEVADAIIIDHVSNDHDWNQYLSFLSLDDVIFDVKTPTNRADLHSLIFLAKELGVLLKTKTFLKQKSSVVNHDFFKFPLNLKNKLKANYFGGLFLRQINQHSSPWTVKGLLINQMIKPVNYYVDKANLVTVFTAQPIHCHDADRIVGNIELKQATHNETFVGLDDKQYEIEPGDIVVCDEKGIIALVGIIGSKRTMVQPTTTNIFFEVVNCNSETIKQTAKRFLINNFASKFMVKPISLLATDNCLNYLQNSLLTTDNIGKISHFSSSLKVEPFSKKLTVNFHKIRQLIGIEKKELTDQTIKKSLSQLGFKVDNQLLKIPSYRQDINTWQDISEEIVKLIDINKLKPIGITSSFNFEKSSYFNTFNALTKLRKKLQTLGFHNVITYQLTDQKSAKTFNLFNLENFITIKNPVSQNHSVMRVSLIDSLLKVLKTNNNYKNELVNIFEFSFIKTQNNSELHLAVLWVEKLFTSSFNPMQGISNDVFTMKGLAKLIVANLGFSCDFEPLDDSDYFVNNQSLKIVVFNEQIGFIGLIKESLLNNYDLNNKPIYCLEINLDRMLSSLNRIEKNYLGYSKLQPVCKDLTFSFTNPASHFDQFANMIKRITGIESWKLISVFETMQNNQLITKYTVRYFLKNDANKPLTNQTIELITNNLKLQCEKLKIKLDI” as the sequence, how does the protein production read?
Its protein production is “failed”.
